Results from patent US20200024360A1 (Janssen / Centocor, published 2020).

Biological target: T1, chimpanzee PSMA, full length (Pan troglodytes, UniProt Q04609 1-750 (human entry))
T1 construct: On transfected HEK293F cells; also called chimp PSMA; H2Q3K5_PANTR
T1 chain: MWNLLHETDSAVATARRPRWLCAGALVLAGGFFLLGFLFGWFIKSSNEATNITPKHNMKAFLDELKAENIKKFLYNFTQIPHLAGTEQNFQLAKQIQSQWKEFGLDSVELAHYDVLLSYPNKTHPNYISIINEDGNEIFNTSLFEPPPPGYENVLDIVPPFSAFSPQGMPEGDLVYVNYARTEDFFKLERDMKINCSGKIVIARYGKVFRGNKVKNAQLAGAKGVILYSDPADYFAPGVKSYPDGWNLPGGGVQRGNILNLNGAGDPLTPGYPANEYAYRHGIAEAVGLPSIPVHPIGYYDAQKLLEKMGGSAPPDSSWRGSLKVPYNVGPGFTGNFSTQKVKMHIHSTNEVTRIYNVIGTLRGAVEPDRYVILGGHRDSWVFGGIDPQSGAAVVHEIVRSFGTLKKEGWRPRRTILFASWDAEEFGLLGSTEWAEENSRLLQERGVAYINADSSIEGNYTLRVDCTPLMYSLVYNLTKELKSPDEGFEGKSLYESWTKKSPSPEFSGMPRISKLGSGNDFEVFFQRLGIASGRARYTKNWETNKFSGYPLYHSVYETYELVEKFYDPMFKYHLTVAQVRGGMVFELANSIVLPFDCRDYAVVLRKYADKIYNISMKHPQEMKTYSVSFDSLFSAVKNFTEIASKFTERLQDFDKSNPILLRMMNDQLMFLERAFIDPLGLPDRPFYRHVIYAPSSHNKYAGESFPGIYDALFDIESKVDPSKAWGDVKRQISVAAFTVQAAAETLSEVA
Assay: flow cytometry, bispecific antibody titrated on chimp PSMA (PSMG9) HEK cells, anti-human kappa light chain PE
Procedure: PSMA×CD3 bispecific antibodies were tested for binding to PSMA positive cell lines LNCAP, human PSMA-HEK, Chimpanzee-PSMA-HEK and Cynomolgous monkey PSMA-HEK. To assess the binding capabilities of the PSMA bispecific antibodies, the cell-binding assay was utilized (described previously). Briefly, PSMA expressing tumor cells are bound by bispecific antibodies at known concentrations and the bound antibody is detected by an anti-human kappa light chain PE conjugated detection reagent (Invitrogen). The Mean Fluorescents Intensity (MFI) is the measure of bound bispecific antibody. The MFI is converted to a relative EC₅₀. EC₅₀ is a commonly used dose-response curve, where the half maximal effective concentration or the EC₅₀ point is defined as the inflection point of the curve. EC₅₀ s were determined by measuring cell bound bispecific and known concentrations. […] The dose response curves were then diluted down to that of background or no bispecific binding. The inflection point of this curve reflects the EC₅₀ point. The calculated EC₅₀ is determined by taking the ug/ml amount of bispecific antibody at the EC₅₀ point and converting it to a molarity value based on the MW of the bispecific antibody. Bispecific antibodies were normalized for protein concentration and then incubated with the same number of cells expressing either human or cyno PSMA. […]

B1: PS3B25 (bispecific antibody, human IgG4 S228P, kappa, lambda, F234A L235A)
heavy 1: not shown
light 1: not shown
heavy 2: EVQLVESGGGLVQPGGSLRLSCAASGFTFNTYAMNWVRQAPGKGLEWVARIRSKYNNYATYYAASVKGRFTISRDDSKNSLYLQMNSLKTEDTAVYYCARHGNFGNSYVSWFAYWGQGTLVTVSSASTKGPSVFPLAPCSRSTSESTAALGCLVKDYFPEPVTVSWNSGALTSGVHTFPAVLQSSGLYSLSSVVTVPSSSLGTKTYTCNVDHKPSNTKVDKRVESKYGPPCPPCPAPEAAGGPSVFLFPPKPKDTLMISRTPEVTCVVVDVSQEDPEVQFNWYVDGVEVHNAKTKPREEQFNSTYRVVSVLTVLHQDWLNGKEYKCKVSNKGLPSSIEKTISKAKGQPREPQVYTLPPSQEEMTKNQVSLTCLVKGFYPSDIAVEWESNGQPENNYKTTPPVLDSDGSFLLYSKLTVDKSRWQEGNVFSCSVMHEALHNHYTQKSLSLSLGK
light 2: QTVVTQEPSLTVSPGGTVTLTCRSSTGAVTTSNYANWVQQKPGQAPRGLIGGTNKRAPGTPARFSGSLLGGKAALTLSGVQPEDEAEYYCALWYSNLWVFGGGTKLTVLGQPKAAPSVTLFPPSSEELQANKATLVCLISDFYPGAVTVAWKADSSPVKAGVETTTPSKQSNNKYAASSYLSLTPEQWKSHRSYSCQVTHEGSTVEKTVAPTECS
notes: IgG4 PAA; also called PSMB87 x CD3B219
B1: binds.
